What was measured:
Type in all cases: biochemical
[1] = substrate: CC(C)(O/N=C(\C(=O)N[C@@H]1C(=O)N2C(C(=O)[O-])=C(C[N+]3(CCNC(=O)c4ccc(O)c(O)c4Cl)CCCC3)CS[C@H]12)c1csc(N)n1)C(=O)O; test: Steady-state hydrolysis kinetics and UV difference spectra with purified IMP-1; conditions: other: FDC hydrolysis by IMP-1, 30 °C, pH 7.5
[2] = substrate: CC(C)(O/N=C(\C(=O)N[C@@H]1C(=O)N2C(C(=O)[O-])=C(C[N+]3(CCNC(=O)c4ccc(O)c(O)c4Cl)CCCC3)CS[C@H]12)c1csc(N)n1)C(=O)O; test: Steady-state hydrolysis kinetics and UV difference spectra with purified NDM-1; conditions: other: substrate hydrolysis by NDM-1, 30 °C, pH 7.5
[3] = substrate: CC(C)(O/N=C(\C(=O)N[C@@H]1C(=O)N2C(C(=O)[O-])=C(C[n+]3ccccc3)CS[C@H]12)c1csc(N)n1)C(=O)O; test: as above; conditions: other: substrate hydrolysis by NDM-1, 30 °C, pH 7.5

| Protein | kcat [1] | kcat [2] | kcat [3] | kcat/Km [3] |
| --- | --- | --- | --- | --- |
| IMP-1 (Serratia marcescens) (protein) TAAESLPDLKIEKLDEGVYVHTSFEEVNGWGVVPKHGLVVLVNAEAYLIDTPFTAKDTEKLVTWFVERGYKIKGSISSHFHSDSTGGIEWLNSRSIPTYASELTNELLKKDGKVQATNSFSGVNYWLVKNKIEVFYPGPGHTPDNVVVWLPERKILFGGCFIKPYGLGNLGDANIEAWPKSAKLLKSKYGKAKLVVPSHSEVGDASLLKLTLEQAVKGLNESKKPSKPSN | 1.25 ± 0.23 s⁻¹ |  |  |  |
| NDM-1 (Klebsiella pneumoniae) (protein) METGDQRFGDLVFRQLAPNVWQHTSYLDMPGFGAVASNGLIVRDGGRVLVVDTAWTDDQTAQILNWIKQEINLPVALAVVTHAHQDKMGGMDALHAAGIATYANALSNQLAPQEGMVAAQHSLTFAANGWVEPATAPNFGPLKVFYPGPGHTSDNITVGIDGTDIAFGGCLIKDSKAKSLGNLGDADTEHYAASARAFGAAFPKASMIVMSHSAPDSRAAITHTARMADKLR |  | 84 ± 11 s⁻¹ | 187 ± 13 s⁻¹ | 4.16e+06 M⁻¹ s⁻¹ |
